Reference: patent US20230203197A1 (UNIVERSITE DE TOUR, published 2023)
Where two headings read alike, the source gives them in different places.

How the values were obtained:
[1] = target: T1, peptide 4C3_3.2 of PR3, biotinylated (human, biotinylated (position not given)); test: HTRF: anti-Fab antibody coupled to d2 on 4C3, terbium-streptavidin on the biotinylated peptide; ratio, baseline-corrected
T1 construct: also called peptide 3.2
Description: The identification of the epitope recognised by the 4C3 antibody was carried out by MabSilico. The first step enabled the PR3 epitope to be modelled using the MabTope method, which consists of the computer prediction of an ordered list of PR3 peptides likely to belong to the epitope from the sequence of the variable part (VH and VL) of 4C3 (FIGS. 4B and 4C). The second step allowed the experimental measurement of the specific binding of a number of these peptides to the antibody. This measurement was made by HTRF (Homogeneous Time Resolved Fluorescence) between an anti-Fab d2-coupled antibody (CisBio™) which binds to the antibody of interest, and a terbium-coupled streptavidin (CisBio™) which binds to the biotinylated peptide (FIG. 4D).

[2] = target: T2, Elastase (UniProt P08246 30-247, limits assumed); test: western blot, 4C3 as the primary antibody
T2 sequence (looked up): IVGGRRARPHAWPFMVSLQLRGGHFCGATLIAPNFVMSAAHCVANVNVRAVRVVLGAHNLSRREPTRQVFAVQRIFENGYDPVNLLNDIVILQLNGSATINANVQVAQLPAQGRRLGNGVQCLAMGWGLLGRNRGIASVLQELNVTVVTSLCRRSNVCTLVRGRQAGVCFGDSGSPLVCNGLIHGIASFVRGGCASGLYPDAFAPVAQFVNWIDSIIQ
Description: (§1) To confirm anti-PR3 specificity, 4C3 was used as a primary antibody in western blot (FIGS. 8A and 8B) on protein lysates from neutrophils, HeLa cells (ATCC® CCL-2™) and human PR3.

[3] = target: T3, Cathepsin G (Cath G) (UniProt P08311 21-244); test: western blot, 4C3 as the primary antibody
T3 sequence (looked up): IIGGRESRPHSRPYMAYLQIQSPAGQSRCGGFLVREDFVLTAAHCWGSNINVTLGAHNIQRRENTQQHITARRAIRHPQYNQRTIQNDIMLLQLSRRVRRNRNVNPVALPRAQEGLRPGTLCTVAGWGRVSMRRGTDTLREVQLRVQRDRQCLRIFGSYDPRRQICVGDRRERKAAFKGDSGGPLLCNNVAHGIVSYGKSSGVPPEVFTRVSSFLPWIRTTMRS
Description: as §1

[4] = target: T4, OVA; test: specificity ELISA on different coated antigens (n=5)
T4 construct: One of the antigens of group m15; also called ovalbumin
T4 chain: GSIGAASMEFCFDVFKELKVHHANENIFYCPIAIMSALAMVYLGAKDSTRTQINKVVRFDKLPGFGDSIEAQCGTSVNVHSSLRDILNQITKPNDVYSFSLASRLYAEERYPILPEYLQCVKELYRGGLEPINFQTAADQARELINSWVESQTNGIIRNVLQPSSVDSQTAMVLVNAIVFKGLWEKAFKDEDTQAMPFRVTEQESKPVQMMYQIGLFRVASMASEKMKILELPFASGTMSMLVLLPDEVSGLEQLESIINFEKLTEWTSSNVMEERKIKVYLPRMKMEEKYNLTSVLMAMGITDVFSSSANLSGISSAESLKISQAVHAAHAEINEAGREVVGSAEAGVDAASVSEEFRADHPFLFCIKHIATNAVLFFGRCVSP

[5] = target: T5, neutrophil proteinase 3 (PR3), purified native human PR3 (human, UniProt P24158 28-248); test: BIACORE (SPR)
T5 construct: Also used in denatured form in western blot and as the antigen of the EuroImmun anti-PR3 kit; also called native PR3
T5 sequence: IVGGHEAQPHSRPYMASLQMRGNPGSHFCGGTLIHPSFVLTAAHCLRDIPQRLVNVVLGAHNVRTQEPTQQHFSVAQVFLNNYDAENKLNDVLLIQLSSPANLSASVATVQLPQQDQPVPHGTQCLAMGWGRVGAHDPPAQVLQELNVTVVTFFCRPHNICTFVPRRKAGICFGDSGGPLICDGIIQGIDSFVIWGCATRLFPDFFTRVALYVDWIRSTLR

[6] = target: T6, BSA (bovine, UniProt P02769); test: ELISA, compared with coated PR3
T6 construct: in the ELISA well; also called Bovine Serum Albumin
T6 sequence (P02769 25-607 limits assumed): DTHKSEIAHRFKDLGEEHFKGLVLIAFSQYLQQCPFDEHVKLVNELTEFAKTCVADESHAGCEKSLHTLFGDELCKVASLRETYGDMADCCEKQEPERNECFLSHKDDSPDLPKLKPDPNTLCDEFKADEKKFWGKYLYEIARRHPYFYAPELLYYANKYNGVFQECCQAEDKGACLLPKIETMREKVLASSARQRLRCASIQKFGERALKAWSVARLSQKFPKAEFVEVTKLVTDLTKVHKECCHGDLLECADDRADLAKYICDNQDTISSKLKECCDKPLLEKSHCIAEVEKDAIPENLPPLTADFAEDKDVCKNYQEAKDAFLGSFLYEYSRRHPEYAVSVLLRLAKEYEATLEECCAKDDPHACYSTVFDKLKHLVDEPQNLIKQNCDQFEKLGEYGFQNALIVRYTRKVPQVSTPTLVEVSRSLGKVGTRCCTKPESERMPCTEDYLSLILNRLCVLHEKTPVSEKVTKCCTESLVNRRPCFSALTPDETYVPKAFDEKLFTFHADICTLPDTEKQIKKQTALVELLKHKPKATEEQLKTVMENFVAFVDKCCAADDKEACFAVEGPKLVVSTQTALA

[7] = target: T5, neutrophil proteinase 3 (PR3), purified …; test: BIACORE (SPR); remark: listed apart in the source
[8] = target: T4, OVA; test: ELISA, compared with coated PR3

B1: human monoclonal anti-proteinase 3 (PR3) 4C3 antibody, G1m3-1 allotype (antibody, human IgG1, kappa)
heavy: not shown
light: DIQMTQSPPTLSASVGDRVTITCRASQSISDWLAWYQQKPGKPPQLLIYKASSLESGVPSRFSGTGSGAEFTLTISSLQPDDSATYYCQQYNSYSNTFGQGTKLEIKRTVAAPSVFIFPPSDEQLKSGTASVVCLLNNFYPREAKVQWKVDNALQSGNSQESVTEQDSKDSTYSLSSTLTLSKADYEKHKVYACEVTHQGLSSPVTKSFNRGEC
notes: also called MAb 4C3; AcMo 4C3
- binding result [1]: binds
- binding result [2]: no binding (tested: 5 µg per lane)
- binding result [3]: no binding (tested: 5 µg per lane)
- binding result [4]: no binding
- Kd [5]: 0.741 nM
- koff [5]: 0.00936 s⁻¹
- kon [5]: 1.26e+07 M⁻¹ s⁻¹
- binding result [6]: no binding

B2: recombinant 4C3 antibody (r4C3), G1m17-1 allotype (antibody, human IgG1, kappa)
heavy: not shown
light: B1 light
notes: Produced in HEK-293 cells; differs from 4C3 only by R>K at position 224 of the heavy chain constant region
- Kd [7]: 0.684 nM
- koff [7]: 0.00936 s⁻¹
- kon [7]: 1.37e+07 M⁻¹ s⁻¹
- binding result [8]: no binding (tested: 1 µg/ml (coating of Ova))
- binding result [6]: no binding
